Patent publication US6586252B2, “Nucleic acid molecule encoding the catalytic subunit of a protein phosphatase 2A that regulates flowering time in plants” (Korea Kumho Petrochemical Co., Ltd., priority 2001, dated 2003)

Test system: phosphorylated oat phytochrome A
Experiment: Dephosphorylation of autophosphorylated oat phytochrome A by recombinant PP2AC-JD (SDS-PAGE, autoradiography)
Assay type: biochemical
Procedure: The oat phytochrome A was first autophosphorylated in the presence of γ[32P]ATP under the light conditions indicated. The recombinant PP2AC-JD protein was expressed via the pGEX-4T-1 expression vector in E. coli strain BL21 as a GST fusion, and the GST tag domain was cleaved out by thrombin digestion. (A) Cation requirements for the PP2AC-JD activity. One μg of the phosphorylated phytoclirome A was incubated with 0.2 μg of the recombinant PP2AC-JD for 30 minutes at room temperature, analysed on 12% SDS-PAGE, and subject to autoradiography. (B) Spectral form-dependent dephosphorylation of the phytochrome A. The Pfr form was a better substrate for the PP2AC-JD than the Pr form.
The enzymatic activity of the protein phosphatase encoded by said nucleic acid molecule can be assayed using a phosphorylated protein, preferentially autophosphorylated phytochromes. The reaction mixture is then analyzed on SDS-PAGE and visualized by autoradiography.
The PCR product containing the PP2AC-JD gene was double-digested with EcoRI and XhoI and incorporated into the pGEX-4T-1 E. coli expression vector, resulting in pG-PP2AC-JD. In this expression construct, the PP2AC-JD gene sequence was in frame fused to the glutathione S-transferase (GST) coding sequence at the N-terminus. The vector construct was transformed into E. coli strain BL21, and the transformants were selected with 100 μg/ml ampicillin. RB medium, rather than LB, was used for induction. Two hundred fifty ml of RB (0.5% yeast extract, 1% tryptone, 0.5% NaCl, 0.2% glucose, pH 7.5 with NaOH) supplemented with ampicillin (100 μg/ml) was inoculated with 3 ml of freshly grown cell culture and incubated at 20° C. with shaking at 250 rpm to an OD600 of 0.6. Expression was induced by adding IPTG (1 μM) and by further shaking at 20° C. for 5 hours. After centrifugation at 5000×g for 5 minutes, the cell pellet was washed in ice-cold 1×Phosphate-Buffered Saline (PBS, 140 mM NaCl, 2.7 mM KCI, 10 mM Na2HPO4, 1.8 mM KH2PO4, pH7.3). […]

B1: PP2AC-JD: recombinant catalytic subunit of a pea protein phosphatase 2A (SEQ ID NO: 2), expressed in E. coli BL21 (protein)
chain: MDLDQWISKVKDGQHLLEDELQLLCEYVKEILIEESNVQPVNSPVTVCGDIHGQFHDLMKLFQTGGHVPETNYIFMGDFVDRGYNSLDVFTILLLLKARYPANITLLRGNHESRQLTQVYGFYDECQRKYGNANATRYCTDVFDYLTLSAIIDGTVLCVHGGLSPDIRTIDQIRVIERNCEIPHEGPFCDLMWSDPEDIETWAVSPRGAGWLFGSRVTSEFNHINNLDLVCRAHQLVQEGLKYMFQDKGLVTVWSAPNYCYRCGNVASILSFNENMEREVKFFTETEENNQMRGPRTGVPYFL
stimulatory effect of other cations on PP2AC-JD activity (cations other than Fe2+ or Zn2+): did not show any significant stimulatory effects | dephosphorylation of phosphorylated oat phytochrome A (in the presence of Fe2+ or Zn2+, 1 μg phytochrome A, 0.2 μg PP2AC-JD, 30 minutes, room temperature): efficiently dephosphorylated | dephosphorylation of Pfr phytochrome A compared with the Pr spectral form (phytochrome A autophosphorylated under different light conditions): more efficiently dephosphorylated
